Laboratory results reported in US20200363410A1.

Key:
[1] = target: biotinylated MPT64 (Rv1980c) polypeptide (M. tuberculosis H37Rv)
[2] = target: biotinylated Ag85A (Rv3804c) polypeptide (M. tuberculosis H37Rv)
[3] = target: biotinylated Ag85B (Rv1886c) polypeptide (M. tuberculosis H37Rv) (UniProt A5U3Q3)
[4] = target: biotinylated MPT63 (Rv1926c) polypeptide (M. tuberculosis H37Rv)
[5] = target: biotinylated MTC28 (Rv0040c) polypeptide (M. tuberculosis H37Rv)

Sequence of streptavidin (P22629 37-163 limits assumed): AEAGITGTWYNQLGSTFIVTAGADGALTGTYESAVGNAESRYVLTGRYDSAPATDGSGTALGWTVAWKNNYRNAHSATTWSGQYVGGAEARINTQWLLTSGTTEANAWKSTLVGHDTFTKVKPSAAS

Work on “streptavidin (from UniProt P22629 37-163)” yielded an Extent of biotinylation (share of protein adsorbed on streptavidin beads) [1] of 99.8%, a Fold reduction in protein reactivity after adsorption [1] of 500 fold and an Extent of biotinylation (share of protein adsorbed on streptavidin beads) [2] of 99.9%. It also gave a Fold reduction in protein reactivity after adsorption [2] of 4000 fold, an Extent of biotinylation (share of protein adsorbed on streptavidin beads) [3] of 99.9% and a Fold reduction in protein reactivity after adsorption [3] of 1000 fold. For the same substance, the Extent of biotinylation (share of protein adsorbed on streptavidin beads) [4] was 99.9%, the Fold reduction in protein reactivity after adsorption [4] was 1000 fold and the Extent of biotinylation (share of protein adsorbed on streptavidin beads) [5] was 99.8%. The Fold reduction in protein reactivity after adsorption [5] was 500 fold.
